The experiment concerns the target T1, Recombinant truncated human CD2 (human, UniProt P06729 25-209, limits assumed).
T1 construct: Bought; also called LFA2
T1 sequence (looked up): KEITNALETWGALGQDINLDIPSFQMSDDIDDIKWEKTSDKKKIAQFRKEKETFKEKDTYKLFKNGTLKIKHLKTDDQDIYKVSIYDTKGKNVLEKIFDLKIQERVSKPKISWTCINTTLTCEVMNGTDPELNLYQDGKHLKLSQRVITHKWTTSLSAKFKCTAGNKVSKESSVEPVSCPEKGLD
As to the kind of experiment: SPR (Biacore T200), IgG amine-coupled to CM5 chip, CD2 injected up to 5 nM, two-state model, 25 °C. The protocol:
All interaction experiments were performed at 25° C. Recombinant truncated human CD2 (Sino Biological, Beijing, China) was diluted in two-fold dilution series with the highest concentration being 5 nM and injected for 180 seconds over immobilized IgG. After 15 minutes of dissociation, the sensor chip was regenerated by 30 seconds injection of 10 mM glycine pH 1.7. Sensorgrams from reference surfaces and blank injections were subtracted from the raw data prior to data analysis. A two-state (induced fit) interaction model was fitted to the data using T200 evaluation software v3.0 (Cytiva Life Sciences/Biacore, Uppsala, Sweden) to determine kinetic rate constants and affinities.

Among the data in patent US20240270845A1 (ZELARION MALTA, published 2024) are Kd values, retold here.

For orientation: Kd means the free concentration of one partner at which half of the binding sites on the other are occupied at equilibrium, for simple one-to-one binding.

B1: Siplizumab (humanized anti-CD2 IgG1κ) (antibody, V domains shown)
VH: QVQLVQSGAEVQRPGASVKVSCKASGYIFTEYYMYWVRQAPGQGLELVGRIDPEDGSIDYVEKFKKKVTLTADTSSSTAYMELSSLTSDDTAVYYCARGKFNYRFAYWGQGTLVTVSS
VL: DVVMTQSPPSLLVTLGQPASISCRSSQSLLHSSGNTYLNWLLQRPGQSPQPLIYLVSKLESGVPDRFSGSGSGTDFTLKISGVEAEDVGVYYCMQFTHYPYTFGQGTKLEIK
notes: also called MEDI-507; anti-CD2 Ab1
B1: the Kd came out at 1.2 nM.

B2: CD2-binding molecule 3 (FcS anti-CD2 IgG2) (antibody, V domains shown)
VH: QVQLVQSGAEVQRPGASVKVSCKASGYIFTEYYMYWVRQAPGQGLELVGRIDPEDGSIDYVEKFKKKVTLTADTSSSTAYMELSSLTSDDTAVYYCARGKFNYRFAYWGQGTLVTVSS
VL: DVVMTQSPPSLLVTLGQPASISCRSSQSLLHSSGNTYLNWLLQRPGQSPQPLIYLVSKLESGVPDRFSGSGSGTDFTLKISGVEAEDVGVYYCMQFTHYPYTFGQGTKLEIK
notes: Standard IgG2 framework with V234A, G237A, P238S, H268A, V309L, A330S, P331S; made in CHO-K1 cells
As to B2, the Kd was determined as 0.9 nM.

B3: CD2-binding molecule 2 (Fc-silent (FcS) anti-CD2 IgG1) (antibody, V domains shown)
VH: QVQLVQSGAEVQRPGASVKVSCKASGYIFTEYYMYWVRQAPGQGLELVGRIDPEDGSIDYVEKFKKKVTLTADTSSSTAYMELSSLTSDDTAVYYCARGKFNYRFAYWGQGTLVTVSS
VL: DVVMTQSPPSLLVTLGQPASISCRSSQSLLHSSGNTYLNWLLQRPGQSPQPLIYLVSKLESGVPDRFSGSGSGTDFTLKISGVEAEDVGVYYCMQFTHYPYTFGQGTKLEIK
notes: IgG1 with LALA-PG mutations at equivalent sites in siplizumab; made in CHO-K1 cells; also called Fc-silent Siplizumab
As to B3, the Kd was determined as 1.5 nM.

B4: CD2-binding molecule 4 (FcS anti-CD2 IgG4) (antibody, V domains shown)
VH: QVQLVQSGAEVQRPGASVKVSCKASGYIFTEYYMYWVRQAPGQGLELVGRIDPEDGSIDYVEKFKKKVTLTADTSSSTAYMELSSLTSDDTAVYYCARGKFNYRFAYWGQGTLVTVSS
VL: DVVMTQSPPSLLVTLGQPASISCRSSQSLLHSSGNTYLNWLLQRPGQSPQPLIYLVSKLESGVPDRFSGSGSGTDFTLKISGVEAEDVGVYYCMQFTHYPYTFGQGTKLEIK
notes: Standard IgG4 framework with S228P, L235E, P329G; made in CHO-K1 cells
For the molecule B4, the equilibrium dissociation constant (Kd) amounted to 1.4 nM.

B5: CD2-binding molecule 1 (a deglycosylated CD2-binding molecule) (antibody, V domains shown)
VH: QVQLVQSGAEVQRPGASVKVSCKASGYIFTEYYMYWVRQAPGQGLELVGRIDPEDGSIDYVEKFKKKVTLTADTSSSTAYMELSSLTSDDTAVYYCARGKFNYRFAYWGQGTLVTVSS
VL: DVVMTQSPPSLLVTLGQPASISCRSSQSLLHSSGNTYLNWLLQRPGQSPQPLIYLVSKLESGVPDRFSGSGSGTDFTLKISGVEAEDVGVYYCMQFTHYPYTFGQGTKLEIK
modifications: Fc N-glycan removed with EndoS2 (GlycINATOR)
notes: produced with GlycINATOR (EndoS2)
For the molecule B5, the Kd was found to be 1.2 nM.
